Measured values as given in patent US20210163536A1 (IPSEN PHARMA S A S, published 2021).

B1: Hydantoin(C(O)-(Arg-Gly))-cyclo(Cys-Glu-His-D-Phe-Arg-Trp-Cys)-NH2 (peptide)
peptide: CEHXRWC
modifications: not fully specified; hydantoin ring from Arg 1, C(O) and the amino group of Gly 2; D-Phe 6; disulfide Cys 3-Cys 9 (cyclo); C-terminal amide
notes: also called Compound C
B2: Hydantoin(C(O)-(Gly-Arg))-cyclo(Cys-Glu-His-D-Phe-Arg-Trp-Cys)-NH2 (peptide)
peptide: CEHXRWC
modifications: hydantoin ring from Gly 1, C(O) and the amino group of Arg 2; D-Phe 6; disulfide Cys 3-Cys 9 (cyclo); C-terminal amide
notes: residue 6 here is D-Phe; also called Compound E
B3: cyclo[Hydantoin(C(O)-(Gly-Cys))-Glu-His-D-Phe-Arg-Trp-Cys]-NH2 (peptide)
peptide: EHXRWC
modifications: not fully specified; hydantoin ring from Gly 1, C(O) and the amino group of Cys 2; D-Phe 5; disulfide Cys 2-Cys 8 (cyclo); C-terminal amide
B4: Hydantoin(C(O)-(Nle-Gly))-cyclo(Cys-Glu-His-D-Phe-Arg-Trp-Cys)-NH2 (peptide)
peptide: CEHXRWC
modifications: not fully specified; hydantoin ring from Nle 1, C(O) and the amino group of Gly 2; Nle 1; D-Phe 6; disulfide Cys 3-Cys 9 (cyclo); C-terminal amide
notes: residue 6 here is D-Phe; also called Compound F
B5: Hydantoin(C(O)-(Gly-Gly))-cyclo(Cys-Glu-His-D-Phe-Arg-Trp-Cys)-NH2 (peptide)
peptide: CEHXRWC
modifications: not fully specified; hydantoin ring from Gly 1, C(O) and the amino group of Gly 2; D-Phe 6; disulfide Cys 3-Cys 9 (cyclo); C-terminal amide
notes: residue 6 here is D-Phe
B6: cyclo[Hydantoin(C(O)-(Ile-Cys))-D-Ala-His-D-Phe-Arg-Trp-Cys]-NH2 (peptide)
peptide: XHXRWC
modifications: hydantoin ring from Ile 1, C(O) and the amino group of Cys 2; D-Ala 3; D-Phe 5; disulfide Cys 2-Cys 8 (cyclo); C-terminal amide

Biological target: T1, human melanocortin-5 receptor (human, UniProt P33032 1-325)
T1 construct: whole, on cells; Ki assays used cellular membranes of the CHO-K1 cells; cAMP assays used the whole cells; also called hMC5; hMC-R receptor subtype 5
T1 sequence (P33032 whole entry): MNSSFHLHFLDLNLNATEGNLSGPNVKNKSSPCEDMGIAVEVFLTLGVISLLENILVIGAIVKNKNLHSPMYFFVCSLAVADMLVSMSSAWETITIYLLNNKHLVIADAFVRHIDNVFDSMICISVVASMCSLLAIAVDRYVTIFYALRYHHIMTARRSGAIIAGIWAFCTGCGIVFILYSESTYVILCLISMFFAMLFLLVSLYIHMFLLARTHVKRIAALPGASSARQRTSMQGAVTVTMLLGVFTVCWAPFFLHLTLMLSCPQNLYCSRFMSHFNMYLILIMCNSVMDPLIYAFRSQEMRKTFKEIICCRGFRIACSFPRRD
Experiment: competition with [125I]-NDP-alpha-MSH, CHO-K1 cell membranes
Protocol: (§1) Competitive inhibition of [¹²⁵I](Tyr²)-(Nle⁴-D-Phe⁷)α-MSH ([¹²⁵I]-NDP-α-MSH, Amersham Biosciences®) binding was carried out in polypropylene 96 well plates. […] Bound [¹²⁵I]-NDP-α-MSH ligand was separated from free [¹²⁵I]-NDP-α-MSH by filtration through GF/C glass fiber filter plates (Unifilter®; Packard) presoaked with 0.1% (w/v) polyethylenimine (PEI), using a Packard Filtermate® harvester. Filters were washed three times with 50 mM Tris-HCl at pH 7.4 at a temperature of approximately 0-4° C. and then assayed for radioactivity using a Packard Topcount® scintillation counter. Binding data were analyzed by computer-assisted non-linear regression analysis (XL fit; IDBS).

Row | Binder | Ki
1 | B1 | 7.76 µM
2 | B2 | 4.22 µM
3 | B3 | 3.07 µM
4 | B4 | 0.0678 µM
5 | B5 | 0.0739 µM

Biological target: T2, human melanocortin-4 receptor (human, UniProt P32245 1-332)
T2 construct: whole, on cells; Ki assays used cellular membranes of the CHO-K1 cells; cAMP assays used the whole cells; also called hMC4; hMC-R receptor subtype 4
T2 sequence (P32245 whole entry): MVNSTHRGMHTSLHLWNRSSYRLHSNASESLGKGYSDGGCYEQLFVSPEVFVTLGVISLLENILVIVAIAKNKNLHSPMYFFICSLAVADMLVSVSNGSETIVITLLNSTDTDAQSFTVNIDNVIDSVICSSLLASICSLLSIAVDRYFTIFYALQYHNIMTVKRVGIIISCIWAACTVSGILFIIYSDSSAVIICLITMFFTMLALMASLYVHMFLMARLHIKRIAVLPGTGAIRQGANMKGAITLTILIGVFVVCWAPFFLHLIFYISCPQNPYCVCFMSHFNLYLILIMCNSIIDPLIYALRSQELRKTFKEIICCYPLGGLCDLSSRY
Experiment: as above
Protocol: as §1

Row | Binder | Ki
6 | B6 | 41.6 nM
7 | B3 | 8.92 nM

Biological target: T3, human melanocortin-1 receptor (human, UniProt Q01726 1-317)
T3 construct: whole, on cells; Ki assays used cellular membranes of the CHO-K1 cells; cAMP assays used the whole cells; also called hMC1; hMC-R receptor subtype 1
T3 sequence (Q01726 whole entry): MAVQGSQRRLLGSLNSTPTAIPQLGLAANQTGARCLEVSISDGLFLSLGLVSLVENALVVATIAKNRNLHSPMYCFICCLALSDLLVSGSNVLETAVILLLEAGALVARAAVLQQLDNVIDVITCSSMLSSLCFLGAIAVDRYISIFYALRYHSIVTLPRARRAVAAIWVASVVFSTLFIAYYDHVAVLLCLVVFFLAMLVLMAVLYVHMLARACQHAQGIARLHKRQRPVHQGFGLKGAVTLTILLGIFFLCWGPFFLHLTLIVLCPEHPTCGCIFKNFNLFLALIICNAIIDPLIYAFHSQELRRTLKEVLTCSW
Experiment: as above
Protocol: as §1

Row | Binder | Ki
8 | B1 | 8.59 nM
9 | B2 | 5.68 nM
10 | B6 | 53.4 nM
11 | B3 | 15.6 nM
12 | B4 | 14.3 nM
13 | B5 | 11.9 nM

Biological target: T4, human melanocortin-3 receptor (human, UniProt P41968 1-323)
T4 construct: whole, on cells; Ki assays used cellular membranes of the CHO-K1 cells; cAMP assays used the whole cells; also called hMC3; hMC-R receptor subtype 3
T4 sequence (P41968 whole entry): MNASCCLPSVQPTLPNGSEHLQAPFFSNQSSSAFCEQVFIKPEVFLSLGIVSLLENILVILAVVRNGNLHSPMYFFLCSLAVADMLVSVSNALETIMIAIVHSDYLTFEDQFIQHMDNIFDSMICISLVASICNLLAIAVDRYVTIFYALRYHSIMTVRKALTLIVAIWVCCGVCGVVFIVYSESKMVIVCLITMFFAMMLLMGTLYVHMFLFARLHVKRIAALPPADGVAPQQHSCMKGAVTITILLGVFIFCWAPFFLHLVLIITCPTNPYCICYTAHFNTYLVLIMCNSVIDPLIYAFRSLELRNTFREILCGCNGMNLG
Experiment: as above
Protocol: as §1

Row | Binder | Ki
14 | B3 | 305 nM
